The results in this text go back to article PMC6381605, “NR4A Nuclear Receptors Target Poly-ADP-Ribosylated DNA-PKcs Protein to Promote DNA Repair”.

For the data set, the target named is NR4A2 R319A (UniProt Q06219 1-598, R319A). The experiment in a line: EMSA; EMSA: 1 ug protein, 10 mM Tris pH 8, 50 mM NaCl, 1 mM EDTA, 5% glycerol, 5 mM DTT, 20 ng/ul dIdC, 1.25 mg/ml BSA, 20 min room temperature; 5% PAGE 0.25x TBE. PAR dot blots left out (PAR is not a defined nucleic acid). The following applies: protein: recombinant; tags: GST tag cleaved (PreScission); label: 32P (alpha-32P-dCTP Klenow fill-in); 5' overhang 4 nt (GATC) on both ends before Klenow fill-in. For orientation: Mobility shift assays separate free from complexed probe on a gel.
Sequence of NR4A2 R319A (Q06219 whole entry R319A): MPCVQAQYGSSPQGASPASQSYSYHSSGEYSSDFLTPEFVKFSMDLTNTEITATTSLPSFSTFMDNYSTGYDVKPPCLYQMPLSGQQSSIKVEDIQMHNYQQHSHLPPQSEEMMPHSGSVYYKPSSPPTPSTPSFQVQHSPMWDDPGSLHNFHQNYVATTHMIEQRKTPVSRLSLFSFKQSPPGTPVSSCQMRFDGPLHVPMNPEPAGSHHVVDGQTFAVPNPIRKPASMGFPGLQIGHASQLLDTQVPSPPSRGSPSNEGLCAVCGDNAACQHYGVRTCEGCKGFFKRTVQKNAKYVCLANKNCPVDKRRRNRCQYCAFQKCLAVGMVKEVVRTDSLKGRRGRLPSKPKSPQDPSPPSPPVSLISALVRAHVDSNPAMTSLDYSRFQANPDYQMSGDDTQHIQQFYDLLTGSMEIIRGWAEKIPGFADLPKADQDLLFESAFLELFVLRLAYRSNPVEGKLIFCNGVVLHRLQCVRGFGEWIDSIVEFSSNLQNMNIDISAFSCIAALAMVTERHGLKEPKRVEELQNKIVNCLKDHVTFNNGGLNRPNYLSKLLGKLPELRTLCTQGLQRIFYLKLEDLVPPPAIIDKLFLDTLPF

B1: NBRE (dsDNA)
DNA 1: GATCCTCGTGCGAAAAGGTCAAGCGCTA
DNA 2: GATCTAGCGCTTGACCTTTTCGCACGAG
With B1, the binding result is reported as “no binding”.
